Reference: article PMC4990970 (Scientific Reports, 2016)

Assays:
Calmodulin (CaM) [1] = molecular target: T1, Calmodulin (CaM) (UniProt P0DP23 1-149); assay: ITC; iTC200, room temperature, 20 mM Tris-HCl pH 7.5, 500 mM NaCl, 5 mM EGTA (apo-CaM, absence of calcium); 0.05-0.1 mM in the cell, 0.5-1.0 mM in the syringe; details: both partners purified
T1 construct: Calmodulin, full length; apo-CaM (5 mM EGTA) and holo-CaM (10 mM CaCl2) are the same protein; the assays tell them apart; Se-Met-substituted apo-CaM was used for anomalous signals in the structure determination; also called apo-CaM; Ca2+-free CaM; source: Escherichia coli, purified using chromatography techniques

Calmodulin (CaM) [2] = molecular target: T1, Calmodulin (CaM); assay: ITC; iTC200, room temperature, 20 mM Tris-HCl pH 7.5, 500 mM NaCl, 10 mM CaCl2 (holo-CaM, presence of calcium); 0.05-0.1 mM in the cell, 0.5-1.0 mM in the syringe; details: both partners purified

Kd (Calmodulin (CaM) [1]): 1.16 mM
Kd (Calmodulin (CaM) [2]): 7.14 µM
B1: AtBAG5-IQR (AtBAG5-long with Ile57, Gln58 and Arg62 substituted with alanine) (domain or fragment)
chain: NATAAAARAASGYASYRIRNLYKKISSINREANRVQSIIQRQETVDAIRSDEKERLRMNETLMALLLKLDSVPGLDPTIREARRKVSRKIVGMQEILDSISETKD
notes: AtBAG5, Arabidopsis thaliana, residues 49-153 (AtBAG5-long) with three conserved residues of the IQ motif changed to alanine; also called IQ motif mutant; AtBAG5-IQR mutant; source: Escherichia coli, purified using chromatography techniques
